Here are results for 7 molecules from patent US20200024360A1 (Janssen / Centocor, published 2020).

This assay has as its target T1, human PSMA (prostate specific membrane antigen), full length (human, UniProt Q04609 1-750).
T1 construct: On LNCaP or C4-2B cells (endogenous) or transduced HEK293F cells; also called FOLH1_HUMAN; hPSMA
The assay can be described thus: flow cytometry cell binding assay, bispecific antibody titrated on LNCaP cells (human PSMA). On the procedure:
PSMA×CD3 bispecific antibodies were tested for binding to PSMA positive cell lines LNCAP, human PSMA-HEK, Chimpanzee-PSMA-HEK and Cynomolgous monkey PSMA-HEK. To assess the binding capabilities of the PSMA bispecific antibodies, the cell-binding assay was utilized (described previously). Briefly, PSMA expressing tumor cells are bound by bispecific antibodies at known concentrations and the bound antibody is detected by an anti-human kappa light chain PE conjugated detection reagent (Invitrogen). The Mean Fluorescents Intensity (MFI) is the measure of bound bispecific antibody. The MFI is converted to a relative EC₅₀. EC₅₀ is a commonly used dose-response curve, where the half maximal effective concentration or the EC₅₀ point is defined as the inflection point of the curve. EC₅₀ s were determined by measuring cell bound bispecific and known concentrations. […] The dose response curves were then diluted down to that of background or no bispecific binding. The inflection point of this curve reflects the EC₅₀ point. The calculated EC₅₀ is determined by taking the ug/ml amount of bispecific antibody at the EC₅₀ point and converting it to a molarity value based on the MW of the bispecific antibody. Bispecific antibodies were normalized for protein concentration and then incubated with the same number of cells expressing either human or cyno PSMA. The MFI at each concentration was collected by flow cytometry and plotted as a function of concentration. Data was transformed via log 10 and then plotted. Nonlinear regression of binding curves was done to determine EC₅₀ s. These relative values were used for ranking PSMA binding to target cells.
PSMA×CD3 bispecific antibodies were tested for binding to PSMA positive cell line, LNCAP, to PSMA negative cell line, PC3. To assess the binding capabilities of the PSMA bispecific antibodies, the cell-binding assay was utilized (described previously). Bispecific antibodies were normalized for protein concentration and then incubated with the same number of cells expressing either human or cyno PSMA. The MFI at each concentration was collected by flow cytometry and plotted as a function of concentration.

T1 sequence (Q04609 whole entry): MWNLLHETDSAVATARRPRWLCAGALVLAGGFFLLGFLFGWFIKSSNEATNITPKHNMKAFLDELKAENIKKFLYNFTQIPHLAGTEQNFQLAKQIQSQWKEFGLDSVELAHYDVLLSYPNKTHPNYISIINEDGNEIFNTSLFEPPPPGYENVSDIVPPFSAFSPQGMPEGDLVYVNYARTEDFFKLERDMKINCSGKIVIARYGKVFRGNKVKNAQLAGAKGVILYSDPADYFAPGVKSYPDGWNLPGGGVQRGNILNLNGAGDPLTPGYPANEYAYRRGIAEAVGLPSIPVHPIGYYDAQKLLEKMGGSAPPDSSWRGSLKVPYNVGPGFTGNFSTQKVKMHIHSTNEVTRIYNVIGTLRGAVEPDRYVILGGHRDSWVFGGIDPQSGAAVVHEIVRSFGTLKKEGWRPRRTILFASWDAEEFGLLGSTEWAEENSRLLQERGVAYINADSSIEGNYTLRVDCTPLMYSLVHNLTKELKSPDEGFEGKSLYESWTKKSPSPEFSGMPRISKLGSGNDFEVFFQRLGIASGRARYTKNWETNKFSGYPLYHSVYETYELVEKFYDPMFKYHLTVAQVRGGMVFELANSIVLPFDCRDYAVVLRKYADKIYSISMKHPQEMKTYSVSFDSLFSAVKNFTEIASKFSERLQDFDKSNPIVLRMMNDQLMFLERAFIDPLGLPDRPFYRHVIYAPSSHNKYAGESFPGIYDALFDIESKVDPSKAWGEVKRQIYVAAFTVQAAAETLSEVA

B1: PS3B60 (bispecific antibody, human IgG4 S228P, kappa, lambda, F234A L235A)
heavy 1: not shown
light 1: not shown
heavy 2: EVQLVESGGGLVQPGGSLRLSCAASGFTFNTYAMNWVRQAPGKGLEWVARIRSKYNNYATYYAASVKGRFTISRDDSKNSLYLQMNSLKTEDTAVYYCARHGNFGNSYVSWFAYWGQGTLVTVSSASTKGPSVFPLAPCSRSTSESTAALGCLVKDYFPEPVTVSWNSGALTSGVHTFPAVLQSSGLYSLSSVVTVPSSSLGTKTYTCNVDHKPSNTKVDKRVESKYGPPCPPCPAPEAAGGPSVFLFPPKPKDTLMISRTPEVTCVVVDVSQEDPEVQFNWYVDGVEVHNAKTKPREEQFNSTYRVVSVLTVLHQDWLNGKEYKCKVSNKGLPSSIEKTISKAKGQPREPQVYTLPPSQEEMTKNQVSLTCLVKGFYPSDIAVEWESNGQPENNYKTTPPVLDSDGSFLLYSKLTVDKSRWQEGNVFSCSVMHEALHNHYTQKSLSLSLGK
light 2: QTVVTQEPSLTVSPGGTVTLTCRSSTGAVTTSNYANWVQQKPGQAPRGLIGGTNKRAPGTPARFSGSLLGGKAALTLSGVQPEDEAEYYCALWYSNLWVFGGGTKLTVLGQPKAAPSVTLFPPSSEELQANKATLVCLISDFYPGAVTVAWKADSSPVKAGVETTTPSKQSNNKYAASSYLSLTPEQWKSHRSYSCQVTHEGSTVEKTVAPTECS
notes: IgG4 PAA; PSMA arm first, then CD3 arm (F405L, R409K); also called PSMB344 x CD3B219
B1: the binding result is listed as “binds”.

B2: PS3B62 (bispecific antibody, human IgG4 S228P, kappa, lambda, F234A L235A)
heavy 1: not shown
light 1: not shown
heavy 2: EVQLVESGGGLVQPGGSLRLSCAASGFTFNTYAMNWVRQAPGKGLEWVARIRSKYNNYATYYAASVKGRFTISRDDSKNSLYLQMNSLKTEDTAVYYCARHGNFGNSYVSWFAYWGQGTLVTVSSASTKGPSVFPLAPCSRSTSESTAALGCLVKDYFPEPVTVSWNSGALTSGVHTFPAVLQSSGLYSLSSVVTVPSSSLGTKTYTCNVDHKPSNTKVDKRVESKYGPPCPPCPAPEAAGGPSVFLFPPKPKDTLMISRTPEVTCVVVDVSQEDPEVQFNWYVDGVEVHNAKTKPREEQFNSTYRVVSVLTVLHQDWLNGKEYKCKVSNKGLPSSIEKTISKAKGQPREPQVYTLPPSQEEMTKNQVSLTCLVKGFYPSDIAVEWESNGQPENNYKTTPPVLDSDGSFLLYSKLTVDKSRWQEGNVFSCSVMHEALHNHYTQKSLSLSLGK
light 2: QTVVTQEPSLTVSPGGTVTLTCRSSTGAVTTSNYANWVQQKPGQAPRGLIGGTNKRAPGTPARFSGSLLGGKAALTLSGVQPEDEAEYYCALWYSNLWVFGGGTKLTVLGQPKAAPSVTLFPPSSEELQANKATLVCLISDFYPGAVTVAWKADSSPVKAGVETTTPSKQSNNKYAASSYLSLTPEQWKSHRSYSCQVTHEGSTVEKTVAPTECS
notes: IgG4 PAA; PSMA arm first, then CD3 arm (F405L, R409K); also called PSMB346 x CD3B219
In the case of B2, the binding result was “binds”.

B3: PS3B63 (bispecific antibody, human IgG4 S228P, kappa, lambda, F234A L235A)
heavy 1: not shown
light 1: not shown
heavy 2: EVQLVESGGGLVQPGGSLRLSCAASGFTFNTYAMNWVRQAPGKGLEWVARIRSKYNNYATYYAASVKGRFTISRDDSKNSLYLQMNSLKTEDTAVYYCARHGNFGNSYVSWFAYWGQGTLVTVSSASTKGPSVFPLAPCSRSTSESTAALGCLVKDYFPEPVTVSWNSGALTSGVHTFPAVLQSSGLYSLSSVVTVPSSSLGTKTYTCNVDHKPSNTKVDKRVESKYGPPCPPCPAPEAAGGPSVFLFPPKPKDTLMISRTPEVTCVVVDVSQEDPEVQFNWYVDGVEVHNAKTKPREEQFNSTYRVVSVLTVLHQDWLNGKEYKCKVSNKGLPSSIEKTISKAKGQPREPQVYTLPPSQEEMTKNQVSLTCLVKGFYPSDIAVEWESNGQPENNYKTTPPVLDSDGSFLLYSKLTVDKSRWQEGNVFSCSVMHEALHNHYTQKSLSLSLGK
light 2: QTVVTQEPSLTVSPGGTVTLTCRSSTGAVTTSNYANWVQQKPGQAPRGLIGGTNKRAPGTPARFSGSLLGGKAALTLSGVQPEDEAEYYCALWYSNLWVFGGGTKLTVLGQPKAAPSVTLFPPSSEELQANKATLVCLISDFYPGAVTVAWKADSSPVKAGVETTTPSKQSNNKYAASSYLSLTPEQWKSHRSYSCQVTHEGSTVEKTVAPTECS
notes: IgG4 PAA; PSMA arm first, then CD3 arm (F405L, R409K); also called PSMB347 x CD3B219
Turning to B3, the binding result is on record as “binds”.

B4: PS3B70 (bispecific antibody, human IgG4 S228P, kappa, lambda, F234A L235A)
heavy 1: not shown
light 1: not shown
heavy 2: EVQLVESGGGLVQPGGSLRLSCAASGFTFNTYAMNWVRQAPGKGLEWVARIRSKYNNYATYYAASVKGRFTISRDDSKNSLYLQMNSLKTEDTAVYYCARHGNFGNSYVSWFAYWGQGTLVTVSSASTKGPSVFPLAPCSRSTSESTAALGCLVKDYFPEPVTVSWNSGALTSGVHTFPAVLQSSGLYSLSSVVTVPSSSLGTKTYTCNVDHKPSNTKVDKRVESKYGPPCPPCPAPEAAGGPSVFLFPPKPKDTLMISRTPEVTCVVVDVSQEDPEVQFNWYVDGVEVHNAKTKPREEQFNSTYRVVSVLTVLHQDWLNGKEYKCKVSNKGLPSSIEKTISKAKGQPREPQVYTLPPSQEEMTKNQVSLTCLVKGFYPSDIAVEWESNGQPENNYKTTPPVLDSDGSFLLYSKLTVDKSRWQEGNVFSCSVMHEALHNHYTQKSLSLSLGK
light 2: QTVVTQEPSLTVSPGGTVTLTCRSSTGAVTTSNYANWVQQKPGQAPRGLIGGTNKRAPGTPARFSGSLLGGKAALTLSGVQPEDEAEYYCALWYSNLWVFGGGTKLTVLGQPKAAPSVTLFPPSSEELQANKATLVCLISDFYPGAVTVAWKADSSPVKAGVETTTPSKQSNNKYAASSYLSLTPEQWKSHRSYSCQVTHEGSTVEKTVAPTECS
notes: IgG4 PAA; PSMA arm first, then CD3 arm (F405L, R409K); also called PSMB358 x CD3B219
In the case of B4, the binding result is given as “binds”.

B5: PS3B64 (bispecific antibody, human IgG4 S228P, kappa, lambda, F234A L235A)
heavy 1: not shown
light 1: not shown
heavy 2: EVQLVESGGGLVQPGGSLRLSCAASGFTFNTYAMNWVRQAPGKGLEWVARIRSKYNNYATYYAASVKGRFTISRDDSKNSLYLQMNSLKTEDTAVYYCARHGNFGNSYVSWFAYWGQGTLVTVSSASTKGPSVFPLAPCSRSTSESTAALGCLVKDYFPEPVTVSWNSGALTSGVHTFPAVLQSSGLYSLSSVVTVPSSSLGTKTYTCNVDHKPSNTKVDKRVESKYGPPCPPCPAPEAAGGPSVFLFPPKPKDTLMISRTPEVTCVVVDVSQEDPEVQFNWYVDGVEVHNAKTKPREEQFNSTYRVVSVLTVLHQDWLNGKEYKCKVSNKGLPSSIEKTISKAKGQPREPQVYTLPPSQEEMTKNQVSLTCLVKGFYPSDIAVEWESNGQPENNYKTTPPVLDSDGSFLLYSKLTVDKSRWQEGNVFSCSVMHEALHNHYTQKSLSLSLGK
light 2: QTVVTQEPSLTVSPGGTVTLTCRSSTGAVTTSNYANWVQQKPGQAPRGLIGGTNKRAPGTPARFSGSLLGGKAALTLSGVQPEDEAEYYCALWYSNLWVFGGGTKLTVLGQPKAAPSVTLFPPSSEELQANKATLVCLISDFYPGAVTVAWKADSSPVKAGVETTTPSKQSNNKYAASSYLSLTPEQWKSHRSYSCQVTHEGSTVEKTVAPTECS
notes: IgG4 PAA; PSMA arm first, then CD3 arm (F405L, R409K); also called PSMB349 x CD3B219
As to B5, the binding result is recorded as “binds”.

B6: PS3B61 (bispecific antibody, human IgG4 S228P, kappa, lambda, F234A L235A)
heavy 1: not shown
light 1: not shown
heavy 2: EVQLVESGGGLVQPGGSLRLSCAASGFTFNTYAMNWVRQAPGKGLEWVARIRSKYNNYATYYAASVKGRFTISRDDSKNSLYLQMNSLKTEDTAVYYCARHGNFGNSYVSWFAYWGQGTLVTVSSASTKGPSVFPLAPCSRSTSESTAALGCLVKDYFPEPVTVSWNSGALTSGVHTFPAVLQSSGLYSLSSVVTVPSSSLGTKTYTCNVDHKPSNTKVDKRVESKYGPPCPPCPAPEAAGGPSVFLFPPKPKDTLMISRTPEVTCVVVDVSQEDPEVQFNWYVDGVEVHNAKTKPREEQFNSTYRVVSVLTVLHQDWLNGKEYKCKVSNKGLPSSIEKTISKAKGQPREPQVYTLPPSQEEMTKNQVSLTCLVKGFYPSDIAVEWESNGQPENNYKTTPPVLDSDGSFLLYSKLTVDKSRWQEGNVFSCSVMHEALHNHYTQKSLSLSLGK
light 2: QTVVTQEPSLTVSPGGTVTLTCRSSTGAVTTSNYANWVQQKPGQAPRGLIGGTNKRAPGTPARFSGSLLGGKAALTLSGVQPEDEAEYYCALWYSNLWVFGGGTKLTVLGQPKAAPSVTLFPPSSEELQANKATLVCLISDFYPGAVTVAWKADSSPVKAGVETTTPSKQSNNKYAASSYLSLTPEQWKSHRSYSCQVTHEGSTVEKTVAPTECS
notes: IgG4 PAA; PSMA arm first, then CD3 arm (F405L, R409K); also called PSMB345 x CD3B219
Regarding B6, the binding result was “binds”.

B7: PS3B71 (bispecific antibody, human IgG4 S228P, kappa, lambda, F234A L235A)
heavy 1: not shown
light 1: not shown
heavy 2: EVQLVESGGGLVQPGGSLRLSCAASGFTFNTYAMNWVRQAPGKGLEWVARIRSKYNNYATYYAASVKGRFTISRDDSKNSLYLQMNSLKTEDTAVYYCARHGNFGNSYVSWFAYWGQGTLVTVSSASTKGPSVFPLAPCSRSTSESTAALGCLVKDYFPEPVTVSWNSGALTSGVHTFPAVLQSSGLYSLSSVVTVPSSSLGTKTYTCNVDHKPSNTKVDKRVESKYGPPCPPCPAPEAAGGPSVFLFPPKPKDTLMISRTPEVTCVVVDVSQEDPEVQFNWYVDGVEVHNAKTKPREEQFNSTYRVVSVLTVLHQDWLNGKEYKCKVSNKGLPSSIEKTISKAKGQPREPQVYTLPPSQEEMTKNQVSLTCLVKGFYPSDIAVEWESNGQPENNYKTTPPVLDSDGSFLLYSKLTVDKSRWQEGNVFSCSVMHEALHNHYTQKSLSLSLGK
light 2: QTVVTQEPSLTVSPGGTVTLTCRSSTGAVTTSNYANWVQQKPGQAPRGLIGGTNKRAPGTPARFSGSLLGGKAALTLSGVQPEDEAEYYCALWYSNLWVFGGGTKLTVLGQPKAAPSVTLFPPSSEELQANKATLVCLISDFYPGAVTVAWKADSSPVKAGVETTTPSKQSNNKYAASSYLSLTPEQWKSHRSYSCQVTHEGSTVEKTVAPTECS
notes: IgG4 PAA; PSMA arm first, then CD3 arm (F405L, R409K); also called PSMB359 x CD3B219
As to B7, the binding result is listed as “binds”.
